Results taken from article PMC9886945.

Columns and labels:
[1] = molecular target: Mtb RNAP holoenzyme with σ^B in which residues 252-323 (subregion 4.2) are deleted (M. tuberculosis) (UniProt P9WGZ1); assay: negative stain EM
[2] = molecular target: Mtb RNAP holoenzyme with σ^B in which residues 252-323 (subregion 4.2) are deleted (M. tuberculosis) (UniProt P9WGZ1); assay: SEC

“Mtb RNAP holoenzyme with σ^B in which residues 252-323 (subregion 4.2) are deleted, P9WGZ1;P9WGY9;P9WGY7;P9WGY5;P9WGI5” was tested, and the stoichiometry N [1] was 8 and the stoichiometry N [2] was 8.
